Sequences and labels used below:
B1: Ia_S4_P5E.1_K5.1_C5.1_H5.1_A5.1_[T5C]_F5.1_T5.1 (ssRNA)
RNA: UUUGACAACUGAUCGUUCUUUCUUGUACUAUUAUUCUUUCUCGAUCAGUUGUCUUU
B2: Ia_S4_P5E.1_K5.1_C5.1_H5.1_A5.1_[T6C]_F5.1_T5.1 (ssRNA)
RNA: UUUGACAACUGAUCGUUCUUUCUUGUAUCAUUAUUCUUUCUCGAUCAGUUGUCUUU

In the data set the target is T1, PUF4 RNA-binding domain (Saccharomyces cerevisiae, UniProt P25339 537-888).
T1 sequence: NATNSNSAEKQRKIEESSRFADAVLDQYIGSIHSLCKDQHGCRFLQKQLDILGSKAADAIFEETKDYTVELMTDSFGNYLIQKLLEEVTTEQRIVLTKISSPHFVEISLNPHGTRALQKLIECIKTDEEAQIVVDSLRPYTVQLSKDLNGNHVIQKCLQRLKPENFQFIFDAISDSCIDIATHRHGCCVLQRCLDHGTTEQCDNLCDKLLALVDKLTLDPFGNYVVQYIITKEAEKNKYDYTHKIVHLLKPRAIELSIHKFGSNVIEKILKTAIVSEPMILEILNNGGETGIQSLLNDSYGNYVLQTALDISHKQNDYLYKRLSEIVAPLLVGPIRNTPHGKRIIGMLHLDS
Nature of the data set: Mg; RNA-MaP; 20 mM Na-HEPES pH 7.4, 30 mM KOAc, 0.75 mM MgCl2, 0.1% Tween-20, 5% glycerol, 0.1 mg/mL BSA, 2 mM DTT; 25 C; 0.0125-409.6 nM protein. As to conditions: tags: N-His6-TEV cleaved; C-SNAP kept, Cy3B-labelled; label: tethered on chip by stalled RNA polymerase.
For orientation: Kd means the equilibrium constant for the complex coming apart. A high value points to lower affinity. Take UCUCUUUGUAAGUGUCUCUU (ssRNA) [Ic_S1_P3E.1_K3.1_C3.1_H3.1_A3.1_[T5A]_[A6G]_F3.1_[A8G]_T3.1]: the Kd stood at 1820 nM.
With UCUCUUUGUAACGUUCUCUU (ssRNA) [Ic_S1_P3E.1_K3.1_C3.1_H3.1_A3.1_[T5A]_[A6C]_F3.1_[T7G]_[A8T]_T3.1], the Kd turned out to be 534 nM.
Then UCUCUUUGUAACGGUCUCUU (ssRNA) [Ic_S1_P3E.1_K3.1_C3.1_H3.1_A3.1_[T5A]_[A6C]_F3.1_[T7G]_[A8G]_T3.1], with over 2300 nM.
For the molecule UCUCUUUGUAACCUUCUCUU (ssRNA) [Ic_S1_P3E.1_K3.1_C3.1_H3.1_A3.1_[T5A]_[A6C]_F3.1_[T7C]_[A8T]_T3.1], the Kd worked out at 81 nM.
Under UCUCUUUGUAAUCGUCUCUU (ssRNA) [Ic_S1_P3E.1_K3.1_C3.1_H3.1_A3.1_[T5A]_[A6T]_F3.1_[T7C]_[A8G]_T3.1] stands 867 nM.
Under UCUCUUUGUAACAUUCUCUU (ssRNA) [Ic_S1_P3E.1_K3.1_C3.1_H3.1_A3.1_[T5A]_[A6C]_F3.1_[T7A]_[A8T]_T3.1] stands 15 nM; under UCUCUUUGUAACUUUCUCUU (ssRNA) [Ic_S1_P3E.1_K3.1_C3.1_H3.1_A3.1_[T5A]_[A6C]_F3.1_[A8T]_T3.1], 57.1 nM; under UCUCUUUGUAACAGUCUCUU (ssRNA) [Ic_S1_P3E.1_K3.1_C3.1_H3.1_A3.1_[T5A]_[A6C]_F3.1_[T7A]_[A8G]_T3.1], 491 nM.
UCUCUUUGUAACACUCUCUU (ssRNA) [Ic_S1_P3E.1_K3.1_C3.1_H3.1_A3.1_[T5A]_[A6C]_F3.1_[T7A]_[A8C]_T3.1]: the Kd came out at 531 nM.
UCUCUUUGUAACAAUCUCUU (ssRNA) [Ic_S1_P3E.1_K3.1_C3.1_H3.1_A3.1_[T5A]_[A6C]_F3.1_[T7A]_T3.1] yielded a Kd of 99.3 nM. This Kd lies about 5.3-fold lower than the previous one.
Under UCUCUUUGUAACUCUCUCUU (ssRNA) [Ic_S1_P3E.1_K3.1_C3.1_H3.1_A3.1_[T5A]_[A6C]_F3.1_[A8C]_T3.1] stands 373 nM; under UCUCUUUGUAACUGUCUCUU (ssRNA) [Ic_S1_P3E.1_K3.1_C3.1_H3.1_A3.1_[T5A]_[A6C]_F3.1_[A8G]_T3.1], 389 nM; under UCUCUUUGUAACCAUCUCUU (ssRNA) [Ic_S1_P3E.1_K3.1_C3.1_H3.1_A3.1_[T5A]_[A6C]_F3.1_[T7C]_T3.1], 959 nM.
Then UCUCUUUGUAAUCCUCUCUU (ssRNA) [Ic_S1_P3E.1_K3.1_C3.1_H3.1_A3.1_[T5A]_[A6T]_F3.1_[T7C]_[A8C]_T3.1], with 812 nM; and UCUCUUUGUAACGCUCUCUU (ssRNA) [Ic_S1_P3E.1_K3.1_C3.1_H3.1_A3.1_[T5A]_[A6C]_F3.1_[T7G]_[A8C]_T3.1], with 996 nM.
Under B1 stands 2.21 nM; under B2, 2.73 nM; under UCUCUUUGUAAUAGUCUCUU (ssRNA) [Ic_S1_P3E.1_K3.1_C3.1_H3.1_A3.1_[T5A]_[A6T]_F3.1_[T7A]_[A8G]_T3.1], 645 nM.
As for UCUCUUUGUAAUCAUCUCUU (ssRNA) [Ic_S1_P3E.1_K3.1_C3.1_H3.1_A3.1_[T5A]_[A6T]_F3.1_[T7C]_T3.1], the Kd is 758 nM.
Take UCUCUUUGUAAUGGUCUCUU (ssRNA) [Ic_S1_P3E.1_K3.1_C3.1_H3.1_A3.1_[T5A]_[A6T]_F3.1_[T7G]_[A8G]_T3.1]: the affinity, expressed as Kd, was 2030 nM.
In turn, UCUCUUUGUACAUAUCUCUU (ssRNA) [Ic_S1_P3E.1_K3.1_C3.1_H3.1_A3.1_[T5C]_F3.1_T3.1] yielded a Kd of 5.88 nM. This Kd is about 350-fold lower than that of the molecule before.
Under UCUCUUUGUAAGUUUCUCUU (ssRNA) [Ic_S1_P3E.1_K3.1_C3.1_H3.1_A3.1_[T5A]_[A6G]_F3.1_[A8T]_T3.1] stands 709 nM; under UCUCUUUGUAAUCUUCUCUU (ssRNA) [Ic_S1_P3E.1_K3.1_C3.1_H3.1_A3.1_[T5A]_[A6T]_F3.1_[T7C]_[A8T]_T3.1], 70.2 nM; under UCUCUUUGUAAUGUUCUCUU (ssRNA) [Ic_S1_P3E.1_K3.1_C3.1_H3.1_A3.1_[T5A]_[A6T]_F3.1_[T7G]_[A8T]_T3.1], 329 nM.
Molecule UCUCUUUGUAACCCUCUCUU (ssRNA) [Ic_S1_P3E.1_K3.1_C3.1_H3.1_A3.1_[T5A]_[A6C]_F3.1_[T7C]_[A8C]_T3.1] had a Kd of 975 nM. This Kd is about 3-fold higher than that of the molecule before.

Values taken from paper PMC9352680, “A comprehensive thermodynamic model for RNA binding by the Saccharomyces cerevisiae Pumilio protein PUF4”.
